For assay [1], the target named is T1, full-length recombinant Fzd7 (human, UniProt O75084 33-574). In words: co-IP.
Assay [2] concerns the target T1, full-length recombinant Fzd7. In words: co-IP. This is another data set of the same source.

Where two headings read alike, the source gives them in different places.

Take DAVEEGDWTATVVDQQDCTLSLQLTTPANA [TG2 peptide 81[residues removed]110]: the binding result in assay [1] was “binds”.

B1: full length recombinant TG2 (enzyme, UniProt P21980 1-687, looked up)
chain: MAEELVLERCDLELETNGRDHHTADLCREKLVVRRGQPFWLTLHFEGRNYEASVDSLTFSVVTGPAPSQEAGTKARFPLRDAVEEGDWTATVVDQQDCTLSLQLTTPANAPIGLYRLSLEASTGYQGSSFVLGHFILLFNAWCPADAVYLDSEEERQEYVLTQQGFIYQGSAKFIKNIPWNFGQFEDGILDICLILLDVNPKFLKNAGRDCSRRSSPVYVGRVVSGMVNCNDDQGVLLGRWDNNYGDGVSPMSWIGSVDILRRWKNHGCQRVKYGQCWVFAAVACTVLRCLGIPTRVVTNYNSAHDQNSNLLIEYFRNEFGEIQGDKSEMIWNFHCWVESWMTRPDLQPGYEGWQALDPTPQEKSEGTYCCGPVPVRAIKEGDLSTKYDAPFVFAEVNADVVDWIQQDDGSVHKSINRSLIVGLKISTKSVGRDEREDITHTYKYPEGSSEEREAFTRANHLNKLAEKEETGMAMRIRVGQSMNMGSDFDVFAHITNNTAEEYVCRLLLCARTVSYNGILGPECGTKYLLNLNLEPFSEKSVPLCILYEKYRDCLTESNLIKVRALLVEPVINSYLLAERDLYLENPEIKIRILGEPKQKRKLVAEVSLQNPLPVALEGCTFTVEGAGLTEEQKTVEIPDPVEAGEEVKVRMDLLPLHMGLHKLVVNFESDKLKAVKGFRNVIIGPA
As to B1, the binding result in assay [2] was “binds”.

B2: recombinant mutant TG2 (C277A) (enzyme)
chain: MAEELVLERCDLELETNGRDHHTADLCREKLVVRRGQPFWLTLHFEGRNYEASVDSLTFSVVTGPAPSQEAGTKARFPLRDAVEEGDWTATVVDQQDCTLSLQLTTPANAPIGLYRLSLEASTGYQGSSFVLGHFILLFNAWCPADAVYLDSEEERQEYVLTQQGFIYQGSAKFIKNIPWNFGQFEDGILDICLILLDVNPKFLKNAGRDCSRRSSPVYVGRVVSGMVNCNDDQGVLLGRWDNNYGDGVSPMSWIGSVDILRRWKNHGCQRVKYGQAWVFAAVACTVLRCLGIPTRVVTNYNSAHDQNSNLLIEYFRNEFGEIQGDKSEMIWNFHCWVESWMTRPDLQPGYEGWQALDPTPQEKSEGTYCCGPVPVRAIKEGDLSTKYDAPFVFAEVNADVVDWIQQDDGSVHKSINRSLIVGLKISTKSVGRDEREDITHTYKYPEGSSEEREAFTRANHLNKLAEKEETGMAMRIRVGQSMNMGSDFDVFAHITNNTAEEYVCRLLLCARTVSYNGILGPECGTKYLLNLNLEPFSEKSVPLCILYEKYRDCLTESNLIKVRALLVEPVINSYLLAERDLYLENPEIKIRILGEPKQKRKLVAEVSLQNPLPVALEGCTFTVEGAGLTEEQKTVEIPDPVEAGEEVKVRMDLLPLHMGLHKLVVNFESDKLKAVKGFRNVIIGPA
Turning to B2, in assay [2], the binding result is reported as “binds”.

The values above are taken from PMC5984683 (Cancer research, 2018).
